pIC50: −log10 of the molar value. Where two headings read alike, the source gives them in different places.
Key:
[1] = biological target: FCGR3A (176Phe/F158) (CD16a) (UniProt P08637)
FCGR2A (167R) (CD32a) [2] = biological target: FCGR2A (167R) (CD32a) (UniProt P12318)
FCGR1 (CD64) [3] = biological target: FCGR1 (CD64) (UniProt P12314)
FCGR2A (167H) (CD32a) [4] = biological target: FCGR2A (167H) (CD32a) (UniProt P12318)
FcRn [5] = biological target: FcRn (UniProt P55899)
[6] = biological target: FCGR3A (176Val/V158) (CD16a) (UniProt P08637)
FCGR2A (167H) (CD32a) [7] = biological target: FCGR2A (167H) (CD32a) (UniProt P12318); remark: listed apart in the source
[8] = biological target: FCGR3A (176Phe/F158) (CD16a) (UniProt P08637); remark: listed apart in the source
FCGR1 (CD64) [9] = biological target: FCGR1 (CD64) (UniProt P12314); remark: listed apart in the source
FcRn [10] = biological target: FcRn (UniProt P55899); remark: listed apart in the source
[11] = biological target: FCGR3A (176Val/V158) (CD16a) (UniProt P08637); remark: listed apart in the source
FCGR2A (167R) (CD32a) [12] = biological target: FCGR2A (167R) (CD32a) (UniProt P12318); remark: listed apart in the source

UniProt P55899, sequence (P55899 24-297): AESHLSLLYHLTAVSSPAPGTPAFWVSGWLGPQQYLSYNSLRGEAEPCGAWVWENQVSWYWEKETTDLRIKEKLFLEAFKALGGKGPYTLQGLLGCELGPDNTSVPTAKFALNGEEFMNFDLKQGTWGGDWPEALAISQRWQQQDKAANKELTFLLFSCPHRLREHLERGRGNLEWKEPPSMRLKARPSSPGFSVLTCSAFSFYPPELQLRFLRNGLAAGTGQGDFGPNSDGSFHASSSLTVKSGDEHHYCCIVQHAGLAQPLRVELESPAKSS
UniProt P12314, sequence (P12314 16-292): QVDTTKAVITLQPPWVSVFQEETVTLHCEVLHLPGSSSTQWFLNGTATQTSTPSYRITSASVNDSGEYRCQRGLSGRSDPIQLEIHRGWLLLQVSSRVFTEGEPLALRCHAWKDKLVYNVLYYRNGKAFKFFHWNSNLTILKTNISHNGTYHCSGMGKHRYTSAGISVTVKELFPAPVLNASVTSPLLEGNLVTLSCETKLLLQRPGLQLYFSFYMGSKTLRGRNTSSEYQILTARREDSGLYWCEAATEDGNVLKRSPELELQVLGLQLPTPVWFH

pIC50 [1] | pIC50 (FCGR2A (167R) (CD32a) [2]) | pIC50 (FCGR1 (CD64) [3]) | pIC50 (FCGR2A (167H) (CD32a) [4]) | pIC50 (FcRn [5]) | pIC50 [6] | pIC50 (FCGR2A (167H) (CD32a) [7]) | pIC50 [8] | pIC50 (FCGR1 (CD64) [9]) | pIC50 (FcRn [10]) | pIC50 [11] | pIC50 (FCGR2A (167R) (CD32a) [12]) | Substance
7.27 | 7.17 | 8.80 | 7.54 | 8.28 | 7.02 |  |  |  |  |  |  | KVA12.1 (WT, hIgG1) (from UniProt P01857)
 |  |  |  |  |  | 6.86 | 6.41 | 8.22 | 9.01 | 6.30 | 6.54 | KVA12123 (YTE, hIgG1) (from UniProt P01857)
